We go through 16 molecules from patent US20240392002A1 (EXELIXIS, published 2024).

One test has as its target T1, ROR1 Ig-like domain (human, UniProt Q01973 42-147).
T1 construct: also called Acro Cat. No. RO1-H5221
Nature of the test: BLI, IgG1 on biosensor, soluble ROR1 domain. From the text:
(§1) To measure binding affinity in ROR binder discovery campaigns, the VL and VH domains identified in the phage screen described above were formatted into a bivalent monospecific native human full-length IgG1 architecture and immobilized to a biosensor on an Octet (Pall ForteBio) biolayer interferometer. Soluble ROR antigens, including the extracellular domains of ROR1 (Acro Cat. No. RO1-H522γ) and ROR2 (Acro Cat. No. R02-H52E5), as well as the individual ROR1 Frizzled (Acro Cat. No. RO1-H5222), Ig-like (Acro Cat. No. RO1-H5221), and Kringle (Acro Cat. No. RO1-H5223) domains, were then added to the system and binding measured.
(§2) ROR binding candidates, formatted in the bivalent monospecific native human full-length IgG1 architecture, were further characterized for binding to ROR1 and/or ROR2. […] ROR binding candidates were also characterized for their binding to specific ROR1 domains.
Background: BLI is a label-free optical method that tracks binding on a fibre tip over time.

Test [1] addresses T2, extracellular domain of human ROR1 (human, UniProt Q01973 30-406).
T2 construct: bought protein; biotinylated in the bivalent assay format; also called Acro Cat. No. RO1-H522y
Nature of the test: BLI, IgG1 on biosensor, soluble ROR ectodomain.
Source text: as §1, §2

Test [2] concerns the target T3, extracellular domain of human ROR2 (human, UniProt Q01974 34-403).
T3 construct: bought protein; biotinylated in the bivalent assay format; also called Acro Cat. No. RO2-H52E5
The experiment in a line: BLI, IgG1 on biosensor, soluble ROR ectodomain.
Source text: as §1, §2

T3 sequence (Q01974 34-403 limits assumed): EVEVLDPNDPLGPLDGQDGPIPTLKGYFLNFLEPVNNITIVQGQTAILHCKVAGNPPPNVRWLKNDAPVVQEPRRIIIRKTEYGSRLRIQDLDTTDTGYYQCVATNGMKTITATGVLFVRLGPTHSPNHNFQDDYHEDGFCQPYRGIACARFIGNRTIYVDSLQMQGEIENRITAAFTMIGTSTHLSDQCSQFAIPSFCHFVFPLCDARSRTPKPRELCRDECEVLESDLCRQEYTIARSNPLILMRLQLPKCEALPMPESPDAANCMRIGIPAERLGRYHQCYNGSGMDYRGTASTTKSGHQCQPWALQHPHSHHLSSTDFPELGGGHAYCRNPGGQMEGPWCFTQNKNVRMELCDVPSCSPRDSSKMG
T1 sequence (Q01973 42-147): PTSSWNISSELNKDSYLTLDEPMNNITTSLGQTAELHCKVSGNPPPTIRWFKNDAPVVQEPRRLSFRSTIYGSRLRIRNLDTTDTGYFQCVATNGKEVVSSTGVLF
T2 sequence (Q01973 30-406 limits assumed): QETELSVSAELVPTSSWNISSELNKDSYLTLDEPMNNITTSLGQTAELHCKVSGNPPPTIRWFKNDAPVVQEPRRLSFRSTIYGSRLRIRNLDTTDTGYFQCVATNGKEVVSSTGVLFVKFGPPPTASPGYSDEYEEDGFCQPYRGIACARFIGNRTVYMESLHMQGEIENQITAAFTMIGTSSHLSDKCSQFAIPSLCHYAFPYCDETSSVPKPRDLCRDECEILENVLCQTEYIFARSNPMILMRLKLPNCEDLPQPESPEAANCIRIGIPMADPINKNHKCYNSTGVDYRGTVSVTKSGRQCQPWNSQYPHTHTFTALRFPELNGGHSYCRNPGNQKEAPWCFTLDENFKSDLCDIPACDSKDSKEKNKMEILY

B1: I2C-24 IgG1 (antibody, V domains shown)
VH: EVQLVESGGGLVQPGGSLRLSCAASGFTFSRYYIHWVRQAPGKGLEWVADIDSYGGFTYYADSVKGRFTISADTSKNTAYLQMNSLRAEDTAVYYCARAHRFLQGGYVLDYWGQGTLVTVSS
VL: DIQMTQSPSSLSASVGDRVTITCRASQSVSSAVAWYQQKPGKAPKLLIYSASSLYSGVPSRFSGSRSGTDFTLTISSLQPEDFATYYCQQYSWGLWTFGQGTKVEIK
notes: human IgG1
B1: the binding result (in the test with ROR1 Ig-like domain; in test [1]; in test [2]) was “binds” in each case.

B2: I2A-4 IgG1 (antibody, V domains shown)
VH: EVQLVESGGGLVQPGGSLRLSCAASGFTFYSYDIHWVRQAPGKGLEWVAYISPYWGITTYADSVKGRFTISADTSKNTAYLQMNSLRAEDTAVYYCARYIGSSYWDALDYWGQGTLVTVSS
VL: DIQMTQSPSSLSASVGDRVTITCRASQSVSSAVAWYQQKPGKAPKLLIYSASSLYSGVPSRFSGSRSGTDFTLTISSLQPEDFATYYCQQSDSSLVTFGQGTKVEIK
notes: human IgG1
In the case of B2, the values for the binding result (in the test with ROR1 Ig-like domain; in test [1]; in test [2]) were “binds”, “binds” and “no binding”, respectively.

B3: I2A-20 IgG1 (antibody, V domains shown)
VH: EVQLVESGGGLVQPGGSLRLSCAASGFTFSDYGIHWVRQAPGKGLEWVAEIDSWLGYTYYADSVKGRFTISADTSKNTAYLQMNSLRAEDTAVYYCARSPYHYLYYGLDYWGQGTLVTVSS
VL: DIQMTQSPSSLSASVGDRVTITCRASQSVSSAVAWYQQKPGKAPKLLIYSASSLYSGVPSRFSGSRSGTDFTLTISSLQPEDFATYYCQQLSSSLGTFGQGTKVEIK
notes: human IgG1
Consider B3, for which the binding result was “binds” with ROR1 Ig-like domain, “binds” in test [1] and “no binding” in test [2].

B4: I2A-14 IgG1 (antibody, V domains shown)
VH: EVQLVESGGGLVQPGGSLRLSCAASGFTFDSYVIHWVRQAPGKGLEWVAYIFSFGGYTYYADSVKGRFTISADTSKNTAYLQMNSLRAEDTAVYYCARSPYGTFALDYWGQGTLVTVSS
VL: DIQMTQSPSSLSASVGDRVTITCRASQSVSSAVAWYQQKPGKAPKLLIYSASSLYSGVPSRFSGSRSGTDFTLTISSLQPEDFATYYCQQYYYTPGTFGQGTKVEIK
notes: human IgG1
On to B4, for which the binding result (in the test with ROR1 Ig-like domain; in test [1]; in test [2]) was “binds” in each case.

B5: I2A-3 IgG1 (antibody, V domains shown)
VH: EVQLVESGGGLVQPGGSLRLSCAASGFTFTSYEIHWVRQAPGKGLEWVAHIDPYGGYTQYADSVKGRFTISADTSKNTAYLQMNSLRAEDTAVYYCARRGVAVFDYWGQGTLVTVSS
VL: DIQMTQSPSSLSASVGDRVTITCRASQSVSSAVAWYQQKPGKAPKLLIYSASSLYSGVPSRFSGSRSGTDFTLTISSLQPEDFATYYCQQWAYAPVTFGQGTKVEIK
notes: human IgG1
For B5, the binding result in the test with ROR1 Ig-like domain is on record as “binds”; in test [1] it was “binds”; in test [2], “no binding”.

B6: I2C-10 IgG1 (antibody, V domains shown)
VH: EVQLVESGGGLVQPGGSLRLSCAASGFTFSSYFIHWVRQAPGKGLEWVATIHSYFDGTSYADSVKGRFTISADTSKNTAYLQMNSLRAEDTAVYYCARTRPTGGAFDYWGQGTLVTVSS
VL: DIQMTQSPSSLSASVGDRVTITCRASQSVSSAVAWYQQKPGKAPKLLIYSASSLYSGVPSRFSGSRSGTDFTLTISSLQPEDFATYYCQQAYWSPATFGQGTKVEIK
notes: human IgG1
Take B6: the binding result (with ROR1 Ig-like domain; in test [1]; in test [2]) was “binds” throughout.

B7: I2A-16 IgG1 (antibody, V domains shown)
VH: EVQLVESGGGLVQPGGSLRLSCAASGFTFSGYFIHWVRQAPGKGLEWVAAIFPYRGGTSYADSVKGRFTISADTSKNTAYLQMNSLRAEDTAVYYCARGGVSPGGFDYWGQGTLVTVSS
VL: DIQMTQSPSSLSASVGDRVTITCRASQSVSSAVAWYQQKPGKAPKLLIYSASSLYSGVPSRFSGSRSGTDFTLTISSLQPEDFATYYCQQYYLYPGTFGQGTKVEIK
notes: human IgG1
As to B7, the binding result (with ROR1 Ig-like domain; in test [1]; in test [2]) was “binds” each time.

B8: I2C-8 IgG1 (antibody, V domains shown)
VH: EVQLVESGGGLVQPGGSLRLSCAASGFTFSGYFIHWVRQAPGKGLEWVAAIFPYRGGTSYADSVKGRFTISADTSKNTAYLQMNSLRAEDTAVYYCARGGVSPGGFDYWGQGTLVTVSS
VL: DIQMTQSPSSLSASVGDRVTITCRASQSVSSAVAWYQQKPGKAPKLLIYSASSLYSGVPSRFSGSRSGTDFTLTISSLQPEDFATYYCQQYYLYPGTFGQGTKVEIK
notes: human IgG1; same CDRs as I2A-16; also called 12C-8
As for B8, the binding result (in the test with ROR1 Ig-like domain; in test [1]; in test [2]) was “binds” each time.

B9: I2C-4 IgG1 (antibody, V domains shown)
VH: EVQLVESGGGLVQPGGSLRLSCAASGFTFWSYFIHWVRQAPGKGLEWVAYIHPSSSYTDYADSVKGRFTISADTSKNTAYLQMNSLRAEDTAVYYCARTSRDGAMDYWGQGTLVTVSS
VL: DIQMTQSPSSLSASVGDRVTITCRASQSVSSAVAWYQQKPGKAPKLLIYSASSLYSGVPSRFSGSRSGTDFTLTISSLQPEDFATYYCQQWYSPPETFGQGTKVEIK
notes: human IgG1
On to B9, for which the binding result (in the test with ROR1 Ig-like domain; in test [1]; in test [2]) was “binds” in each case.

B10: I2A-1 IgG1 (antibody, V domains shown)
VH: EVQLVESGGGLVQPGGSLRLSCAASGFTFSSYFIHWVRQAPGKGLEWVAAIYPEGGYTYYADSVKGRFTISADTSKNTAYLQMNSLRAEDTAVYYCARDYKYVGALDYWGQGTLVTVSS
VL: DIQMTQSPSSLSASVGDRVTITCRASQSVSSAVAWYQQKPGKAPKLLIYSASSLYSGVPSRFSGSRSGTDFTLTISSLQPEDFATYYCQQYYYFPGTFGQGTKVEIK
notes: human IgG1
For the molecule B10, the binding result (in the test with ROR1 Ig-like domain; in test [1]; in test [2]) was “binds” throughout.

B11: I2C-9 IgG1 (antibody, V domains shown)
VH: EVQLVESGGGLVQPGGSLRLSCAASGFTFTDYDIHWVRQAPGKGLEWVARIWPHGSYTFYADSVKGRFTISADTSKNTAYLQMNSLRAEDTAVYYCARSLTHSYGFDYWGQGTLVTVSS
VL: DIQMTQSPSSLSASVGDRVTITCRASQSVSSAVAWYQQKPGKAPKLLIYSASSLYSGVPSRFSGSRSGTDFTLTISSLQPEDFATYYCQQYYTWLITFGQGTKVEIK
notes: human IgG1
Regarding B11, the binding result (in the test with ROR1 Ig-like domain; in test [1]; in test [2]) was “binds” throughout.

B12: I2A-6 IgG1 (antibody, V domains shown)
VH: EVQLVESGGGLVQPGGSLRLSCAASGFTFSLYAIHWVRQAPGKGLEWVAEIDSWLGYTYYADSVKGRFTISADTSKNTAYLQMNSLRAEDTAVYYCARRPVTEVYYSALDYWGQGTLVTVSS
VL: DIQMTQSPSSLSASVGDRVTITCRASQSVSSAVAWYQQKPGKAPKLLIYSASSLYSGVPSRFSGSRSGTDFTLTISSLQPEDFATYYCQQYDRSLHTFGQGTKVEIK
notes: human IgG1
Consider B12, for which the results for the binding result (with ROR1 Ig-like domain; in test [1]; in test [2]) were “binds”, “binds” and “no binding”, respectively.

B13: I2A-22 IgG1 (antibody, V domains shown)
VH: EVQLVESGGGLVQPGGSLRLSCAASGFTFSSYFIHWVRQAPGKGLEWVAAIYPSGWYTSYADSVKGRFTISADTSKNTAYLQMNSLRAEDTAVYYCARVQAGVFDYWGQGTLVTVSS
VL: DIQMTQSPSSLSASVGDRVTITCRASQSVSSAVAWYQQKPGKAPKLLIYSASSLYSGVPSRFSGSRSGTDFTLTISSLQPEDFATYYCQQYYYYPGTFGQGTKVEIK
notes: human IgG1
For the molecule B13, the binding result (in the test with ROR1 Ig-like domain; in test [1]; in test [2]) was “binds” in each case.

B14: I2C-11 IgG1 (antibody, V domains shown)
VH: EVQLVESGGGLVQPGGSLRLSCAASGFTFGSYFIHWVRQAPGKGLEWVAAIFPAGGYTYYADSVKGRFTISADTSKNTAYLQMNSLRAEDTAVYYCARYGSMGGAFDYWGQGTLVTVSS
VL: DIQMTQSPSSLSASVGDRVTITCRASQSVSSAVAWYQQKPGKAPKLLIYSASSLYSGVPSRFSGSRSGTDFTLTISSLQPEDFATYYCQQYYWFPGTFGQGTKVEIK
notes: human IgG1
In the case of B14, the binding result (with ROR1 Ig-like domain; in test [1]; in test [2]) was “binds” in each case.

B15: I2C-2 IgG1 (antibody, V domains shown)
VH: EVQLVESGGGLVQPGGSLRLSCAASGFTFSDYFIHWVRQAPGKGLEWVAGIYPYSGYTKYADSVKGRFTISADTSKNTAYLQMNSLRAEDTAVYYCARDHSPVLDYWGQGTLVTVSS
VL: DIQMTQSPSSLSASVGDRVTITCRASQSVSSAVAWYQQKPGKAPKLLIYSASSLYSGVPSRFSGSRSGTDFTLTISSLQPEDFATYYCQQWYYWPGTFGQGTKVEIK
notes: human IgG1
B15: the binding result (in the test with ROR1 Ig-like domain; in test [1]; in test [2]) was “binds” throughout.

B16: I2C-1 IgG1 (antibody, V domains shown)
VH: EVQLVESGGGLVQPGGSLRLSCAASGFTFTSYGIHWVRQAPGKGLEWVAAIYPHSGFTSYADSVKGRFTISADTSKNTAYLQMNSLRAEDTAVYYCARTSYRGFDYWGQGTLVTVSS
VL: DIQMTQSPSSLSASVGDRVTITCRASQSVSSAVAWYQQKPGKAPKLLIYSASSLYSGVPSRFSGSRSGTDFTLTISSLQPEDFATYYCQQYYWYPGTFGQGTKVEIK
notes: human IgG1
Consider B16, for which the binding result (with ROR1 Ig-like domain; in test [1]; in test [2]) was “binds” in each case.
